Drawing on paper PMC5626996, this text covers hydrogenase activity, Fdred → H2 (hydrogen production from reduced ferredoxin without NADH), 37°C, pH 7.5 and hydrogenase activity, H2 → Fdox (reduction of oxidized ferredoxin with hydrogen as the electron donor), 37°C, pH 7.5 for one molecule.

The experiment addresses NADH-dependent [FeFe]-hydrogenase Hyd1ABC (purified recombinant heterotrimer) (Syntrophomonas wolfei).

B1: Clostridial ferredoxin (Clostridium pasteurianum) (natural protein)
chain: MAYKIADSCVSCGACASECPVNAISQGDSIFVIDADTCIDCGNCANVCPVGAPVQE
On to B1, for which the hydrogenase activity, Fdred → H2 (hydrogen production from reduced ferredoxin without NADH), 37°C, pH 7.5 is less than 0.01 U · mg^−1 and the hydrogenase activity, H2 → Fdox (reduction of oxidized ferredoxin with hydrogen as the electron donor), 37°C, pH 7.5 is less than 0.01 U · mg^−1.
